Data taken from article PMC7396682, “Effect of a Novel Alpha/Beta Hydrolase Domain Protein on Tolerance of K. marxianus to Lignocellulosic Biomass Derived Inhibitors” (Frontiers in Bioengineering and Biotechnology, 2020).

Legend:
Assay in all cases: purified protein
Type in all cases: biochemical, Kluyveromyces marxianus
[1] = substrate: CC(C)(COP(=O)(O)OP(=O)(O)OC[C@H]1O[C@@H](n2cnc3c(N)ncnc32)[C@H](O)[C@@H]1OP(=O)(O)O)[C@@H](O)C(=O)NCCC(=O)NCCSC(=O)CCC(=O)O; conditions: 100 mM HEPES, pH 8.0, 37 °C, 1 mM DTNB
[2] = substrate: CCCC(=O)SCCNC(=O)CCNC(=O)[C@H](O)C(C)(C)COP(=O)(O)OP(=O)(O)OC[C@H]1O[C@@H](n2cnc3c(N)ncnc32)[C@H](O)[C@@H]1OP(=O)(O)O; conditions: 100 mM HEPES, pH 8.0, 37 °C, 1 mM DTNB
[3] = substrate: CCCCCCCCCC(=O)SCCNC(=O)CCNC(=O)[C@H](O)C(C)(C)COP(=O)(O)OP(=O)(O)OC[C@H]1O[C@@H](n2cnc3c(N)ncnc32)[C@H](O)[C@@H]1OP(=O)(O)O; conditions: 100 mM HEPES, pH 8.0, 37 °C, 1 mM DTNB
[4] = substrate: CC(=O)Oc1ccc([N+](=O)[O-])cc1; conditions: 50 mM Tris-HCl, pH 8.0, 37 °C
[5] = substrate: CCCC(=O)Oc1ccc([N+](=O)[O-])cc1; conditions: 50 mM Tris-HCl, pH 8.0, 37 °C

| Protein | Km [1] [µM] | Km [2] [µM] | Km [3] [µM] | Km [4] [µM] | Km [5] [µM] |
| --- | --- | --- | --- | --- | --- |
| KmYME (Kluyveromyces marxianus DMKU3-1042) (protein, expressed from pWD010 (T7 promoter) in E. coli BL21(DE3), nickel-column purified (tag not described); native full length 360 aa) MLLAYTVRPSNWSFTRRAYSATARAFNQQKGLLPLPIKETVDMAYDLHLPERSVIGKMPYHSPEPIIFYHGLLGSKRNYRHDCKKLATALQTPVYTVDIRNHGSSEHALPFDYNTLVNDLVHFAETHSLGKVNLVGYSLGAKVAMLACLKHPERFSAACIIDNSPEEQPHIKPLLTALVKSCVKLLDHHNVRADDKLWRHKASEALKKYIPDAGIRYYLLSNIINNPRVVEYRSPVINYDDGMLHFKNPVRHMMDFVTKEVAAWPTQELEGKQFLGPVNFIKATRSDFINPKSLQAINQYFPYHNIDEINATHFILNERPQEYLRAVTDFFKVTRYQLEKKREQDLAKIDQLNASESLKSARD | 387.58 ± 3.42 | 468.44 ± 20.62 | 329.20 ± 12.75 | 189.73 ± 12.20 | 258.41 ± 5.97 |
| KmYME (Kluyveromyces marxianus DMKU3-1042; L139M/Y137H) (protein, expressed from pWD010 (T7 promoter) in E. coli BL21(DE3), nickel-column purified (tag not described); native full length 360 aa) MLLAYTVRPSNWSFTRRAYSATARAFNQQKGLLPLPIKETVDMAYDLHLPERSVIGKMPYHSPEPIIFYHGLLGSKRNYRHDCKKLATALQTPVYTVDIRNHGSSEHALPFDYNTLVNDLVHFAETHSLGKVNLVGHSMGAKVAMLACLKHPERFSAACIIDNSPEEQPHIKPLLTALVKSCVKLLDHHNVRADDKLWRHKASEALKKYIPDAGIRYYLLSNIINNPRVVEYRSPVINYDDGMLHFKNPVRHMMDFVTKEVAAWPTQELEGKQFLGPVNFIKATRSDFINPKSLQAINQYFPYHNIDEINATHFILNERPQEYLRAVTDFFKVTRYQLEKKREQDLAKIDQLNASESLKSARD | 1022.84 ± 145.83 | 1138.20 ± 185.83 | 449.88 ± 87.78 | 193.89 ± 10.00 | 685.66 ± 34.83 |
